Biological target: Rabbit skeletal muscle α-actin, filamentous (F-actin) (rabbit, UniProt P68135 1-377)
Conditions: both partners purified

| Kd [µM] | Binder |
| --- | --- |
| 6 ± 0.7 | MGVADLIKKFESISKRE (One of the plasmids 2479, 2556, 2557, 2558; also called E16R Lifeact variant; source: E. coli BL21-CodonPlus(DE3)-RIPL, purified (Protino Ni-IDA resin, dialysis)) [E16R Lifeact–mCherry] |
| 8.1 ± 0.6 | MGVADLIKKFESISKEK (Lifeact (17 N-terminal residues of yeast ABP140) with E17K, fused to mCherry; One of the plasmids 2479, 2556, 2557, 2558; also called E17K variant of Lifeact; source: E. coli BL21-CodonPlus(DE3)-RIPL, purified (Protino Ni-IDA resin, dialysis)) [E17K Lifeact–mCherry] |

— PMC7717565 (PLoS Biology, 2020)
